Reference: US20250320288A1 (ELIXIRON IMMUNOTHERAPEUTICS HONG KONG, published 2025)

Molecular target: recombinant human IFN-γ (human)
Assay: cell-based or functional assay

Chain of recombinant human IFN-γ (human) (P01579 24-161): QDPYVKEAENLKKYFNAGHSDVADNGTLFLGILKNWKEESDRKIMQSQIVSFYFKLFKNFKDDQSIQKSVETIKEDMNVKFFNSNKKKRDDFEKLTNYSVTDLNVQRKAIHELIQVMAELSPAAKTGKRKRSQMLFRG

B1: EI-001 (2A6Q), human monoclonal anti-IFN-γ antibody (antibody, human IgG1, lambda, V domains shown)
VH: EVQLVESGGGLVKPGDSLTVSCVASGFTFSNYFIHWVRQAPGKGLEWVATISGRTKYMFYSDSLRGRFTVSRDNAQNSVYLHMSSLRGEDTALYYCVRGYDHSDSNSAADLLHWGRGTLVTVSS
VL: NFMLTQPLSVSGYPGKTIVISCVRSSGSVASHYVQWFQQRPGSAPAMVIYEDSHRPSGIPDRFSGSVDASSNSASLTISGLKTEDEADYFCQSYYGNNQVLFGGGTKLTVLG
  EC50 of EI-001 restoring viability of human primary melanocytes cultured with 30 ng/mL IFN-γ (CellTiter-Glo, 72 hrs): 0.00521 µg/mL
  EC50 restoring melanogenesis (melanin content, absorbance at 470 nm) of human primary melanocytes cultured with 20 ng/mL IFN-γ for 7 days: 0.129 µg/mL
